# Square brackets hold non-standard residues; d marks the D form. Ends that are not written are not given here. * marks the point of attachment. pS = N[C@@H](COP(=O)(O)O)C(=O)O; Tfa = O=C(C(F)(F)F)*
# Legend:
# [1] = Average particle diameter of peptide assembly by dynamic light scattering; type: physicochemical; conditions: 10 mM HEPES, 150 mM NaCl buffer (pH 7); 40 mM DMSO stock diluted 100-fold; stood overnight; 25° C.; main peak of scattering intensity
# Method: 5 mg of each of the peptides of Examples 1-1 to 1-5 and Reference Examples 1-1 to 1-8 was dissolved in dimethyl sulfoxide (DMSO) to provide a stock solution (40 mM). To a 10 mM HEPES and 150 mM NaCl buffer (pH 7) under stirring with a micromixer (E-36, Taitec Corporation), 4 μL of the stock solution was dropped to be diluted 100-fold. The dilution was vortexed and then left to stand still at room temperature overnight. Then, 200 μL of the dilution was used as a measurement sample and measurement of particle diameter distribution was performed at 25° C. by dynamic light scattering with Litesizer 500 (Anton Paar GmBH). The results determined by defining the main peak of a scattering intensity as the average particle diameter of an assembly are shown in Table 3. Provided that, when a polydispersity index was more than 20%, the main peak was determined with further reference to a volume-based particle diameter distribution.
# [2] = Pyrene fluorescence probing, critical aggregation concentration; type: physicochemical; conditions: pyrene probe 0.1 μM in PBS, 24 hours, room temperature; inflection point of FIG. 5
# Method: Fluorescence probing has hitherto been widely used as a technique for measuring the critical micellar concentration (CMC) of a surfactant solution. When hydrophobic fluorescent molecules are added to an aqueous solution of a surfactant and excited, week fluorescence is generated from the fluorescent molecules dispersed in the solution under a state in which the concentration of the surfactant is low. Meanwhile, the concentration of the surfactant is more than the CMC, the hydrophobic fluorescent molecule is incorporated into a micelle surrounded by hydrophobic groups of the surfactant (hydrophobic environment) and emits strong fluorescence. In this experimental example, a change in fluorescent property with a change in peptide concentration was investigated by using pyrene as a fluorescence probe and using a peptide instead of the surfactant. […]
# (3) One hundred fifty microliter of the reaction solution was transferred to each well of a plate (Non-Treated Black Polystyrene 96-well plate (Corning 3694)). […] The peak value of a fluorescence intensity (384 nm) was plotted against a peptide concentration (logarithmic value).
# This increased fluorescence intensity means formation of a peptide assembly that provides a hydrophobic environment capable of encapsulating pyrene. […] The peptides of Examples 1-2 and 1-5 each had approximately the same fluorescence intensity up to 0.1 mM.
substance,measurement,setting,value
DSpSEEKW-LLELLELL-RRK(Tfa)RR (DS[pS]EEKWLLELLELLRRK(Tfa)RR-NH2; N-terminus assumed; SMILES CC(C)C[C@H](NC(=O)[C@H](CC(C)C)NC(=O)[C@H](CCC(=O)O)NC(=O)[C@H](CC(C)C)NC(=O)[C@H](CC(C)C)NC(=O)[C@H](CCC(=O)O)NC(=O)[C@H](CC(C)C)NC(=O)[C@H](CC(C)C)NC(=O)[C@H](Cc1c[nH]c2ccccc12)NC(=O)[C@H](CCCCN)NC(=O)[C@H](CCC(=O)O)NC(=O)[C@H](CCC(=O)O)NC(=O)[C@H](COP(=O)(O)O)NC(=O)[C@H](CO)NC(=O)[C@@H](N)CC(=O)O)C(=O)N[C@@H](CCCNC(=N)N)C(=O)N[C@@H](CCCNC(=N)N)C(=O)N[C@@H](CCCCNC(=O)C(F)(F)F)C(=O)N[C@@H](CCCNC(=N)N)C(=O)N[C@@H](CCCNC(=N)N)C(N)=O) [Example 1-1],Average particle diameter,[1],380 nm
same,critical aggregation concentration (CAC),[2],50 µM

# Source: US20260092084A1, “PEPTIDE AND ASSEMBLY OR COMPOSITION CONTAINING SAID PEPTIDE” (priority 2022, published 2026)
